Source: paper PMC7949057 (2021)
Where a chain is given by its changes, count along the chain named. In names and notes the source's numbering stands. Each block holds one binder with its values, some of them ahead of it.

Tests used:
[1] = target: T1, Recombinant hamster GRP78 protein (hamster, UniProt G3I8R9 19-654, RED-tris-NTA dye held on the His-tag); test: MST; 1 uM CaCl2
[2] = target: T1, Recombinant hamster GRP78 protein; test: MST; 100 uM CaCl2
[3] = target: T1, Recombinant hamster GRP78 protein; test: MST; 200 uM CaCl2
[4] = target: T1, Recombinant hamster GRP78 protein; test: MST
[5] = target: Substrate-binding domain (SBD) of GRP78 (RED-tris-NTA dye held on the His-tag); test: MST
Chain of Substrate-binding domain (SBD) of GRP78 (RED-tris-NTA dye held on the His-tag) (chain, as listed by the source): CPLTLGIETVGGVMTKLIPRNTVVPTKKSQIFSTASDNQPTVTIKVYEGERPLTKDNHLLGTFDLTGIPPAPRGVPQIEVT

T1 sequence (G3I8R9 19-654): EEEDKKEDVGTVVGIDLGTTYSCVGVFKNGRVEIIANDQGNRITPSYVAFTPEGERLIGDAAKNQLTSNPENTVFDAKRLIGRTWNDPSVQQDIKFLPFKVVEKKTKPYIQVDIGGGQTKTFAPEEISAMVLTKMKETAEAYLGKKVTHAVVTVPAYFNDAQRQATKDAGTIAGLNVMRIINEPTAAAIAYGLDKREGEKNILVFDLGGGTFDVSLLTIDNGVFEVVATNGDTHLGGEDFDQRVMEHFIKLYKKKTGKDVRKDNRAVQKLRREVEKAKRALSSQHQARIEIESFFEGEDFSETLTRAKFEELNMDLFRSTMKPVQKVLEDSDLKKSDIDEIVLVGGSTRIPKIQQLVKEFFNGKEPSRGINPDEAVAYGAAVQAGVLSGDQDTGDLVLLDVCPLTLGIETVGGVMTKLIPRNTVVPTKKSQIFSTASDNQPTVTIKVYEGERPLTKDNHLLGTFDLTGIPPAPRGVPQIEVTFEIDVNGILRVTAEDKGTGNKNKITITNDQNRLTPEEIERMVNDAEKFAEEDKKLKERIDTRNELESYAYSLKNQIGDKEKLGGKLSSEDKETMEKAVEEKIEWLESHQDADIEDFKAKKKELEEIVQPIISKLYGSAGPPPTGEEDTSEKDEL

Kd [1]: 570 nM
Kd [2]: 500 nM
Kd [3]: 430 nM
Kd [4]: 216 nM
Kd [5]: 1400 nM
B1: Recombinant human MANF protein (natural protein)
chain: LRPGDCEVCISYLGRFYQDLKDRDVTFSPATIENELIKFCREARGKENRLCYYIGATDDAATKIINEVSKPLAHHIPVEKICEKLKKKDSQICELKYDKQIDLSTVDLKKLRVKELKKILDDWGETCKGCAEKSDYIRKINELMPKYAPKAASARTDL

Kd [4]: 269 nM
B2: Recombinant MANF E153A mutant protein (natural protein)
chain: B1 chain with E132A
